From patent publication US20210087286A1 (Amgen, published 2021)

T1: human GIPR (human, UniProt P48546 22-466)
T1 sequence: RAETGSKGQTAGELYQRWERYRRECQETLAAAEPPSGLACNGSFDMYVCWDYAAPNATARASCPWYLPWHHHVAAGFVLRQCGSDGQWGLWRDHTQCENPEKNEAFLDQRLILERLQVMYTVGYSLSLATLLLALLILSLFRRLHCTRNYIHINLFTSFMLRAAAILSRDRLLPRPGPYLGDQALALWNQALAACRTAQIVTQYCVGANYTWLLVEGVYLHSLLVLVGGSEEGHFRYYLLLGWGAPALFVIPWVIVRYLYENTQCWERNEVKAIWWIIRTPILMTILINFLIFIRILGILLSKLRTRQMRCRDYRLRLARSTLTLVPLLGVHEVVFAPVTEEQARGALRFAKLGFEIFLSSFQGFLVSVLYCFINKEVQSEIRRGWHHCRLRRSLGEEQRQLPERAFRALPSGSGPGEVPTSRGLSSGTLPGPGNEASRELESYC

T2: huGIPR ECD (human, UniProt P48546 21-129, limits assumed)
T2 construct: Soluble analyte of the Biacore assay; also called human GIPR extracellular domain
T2 sequence: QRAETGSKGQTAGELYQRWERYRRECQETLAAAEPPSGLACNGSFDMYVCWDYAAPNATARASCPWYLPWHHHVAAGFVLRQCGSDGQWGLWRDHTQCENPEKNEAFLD

T3: murine GIPR (murine, UniProt Q0P543 19-460, limits assumed)
T3 sequence: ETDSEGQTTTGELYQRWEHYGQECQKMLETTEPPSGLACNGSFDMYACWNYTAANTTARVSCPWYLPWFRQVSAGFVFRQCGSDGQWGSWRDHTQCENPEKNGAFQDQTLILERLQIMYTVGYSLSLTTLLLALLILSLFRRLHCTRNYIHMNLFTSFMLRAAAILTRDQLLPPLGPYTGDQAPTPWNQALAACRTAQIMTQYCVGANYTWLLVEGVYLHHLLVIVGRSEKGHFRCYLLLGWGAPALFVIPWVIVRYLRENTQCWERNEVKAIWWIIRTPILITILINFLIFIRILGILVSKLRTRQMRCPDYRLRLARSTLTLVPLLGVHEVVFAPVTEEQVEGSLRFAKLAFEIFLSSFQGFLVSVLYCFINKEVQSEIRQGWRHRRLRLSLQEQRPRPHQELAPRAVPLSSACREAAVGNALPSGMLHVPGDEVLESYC


Legend:
human GIPR [1] = molecular target: T1, human GIPR; experiment: cell-based or functional assay
huGIPR ECD = molecular target: T2, huGIPR ECD; experiment: SPR (Biacore T200), mAb captured via goat anti-huFc, 200 nM huGIPR ECD analyte
Method: Immobilization of Goat-anti-huFc antibody to a S-CM5 sensor chip surface was performed according to manufacturer's instructions. The Biacore instrument running buffer is 0.005% P20/PBS 1×, pH7.4, no calcium chloride, no magnesium chloride. Briefly, carboxyl groups on the sensor chip surfaces were activated by injecting 60 μL of a mixture containing 0.2 M N-ethyl-N′-(dimethylaminopropyl) carbodiimide (EDC) and 0.05 M N-hydroxysuccinimide (NHS). Goat-anti-huFc antibody was diluted in 10 mM sodium acetate, pH 4.0 at 20 μg/ml and injected over the activated chip surface at 30 uL/min for 6 minutes. Excess reactive groups on the surfaces were deactivated by injecting 60 μL of 1 M ethanolamine. Final immobilized level was ˜8000 resonance units (RU).
Binding assays were carried out on the immobilized goat anti-huFc antibody surface by Biacore T200. The experiment was performed at 25° C. The instrument running buffer was 0.005% P20/PBS. The goat anti-huFc capture antibody was covalently attached to the sensor chip surface via standard amine coupling to flow cells channel 1-4. The anti-huGIPR antibodies were diluted in sample buffer (0.1 mg/ml BSA, 0.005% P20, PBS) to ˜10 nM then captured to flow cells channel 2, 3, 4. Flow cell channel 1 was as a blank reference surface without injection of anti-huGIPR antibody. The captured antibody response range was ˜250 RU. Then 200 nM huGIPR ECD was injected over the goat anti-huFc antibody captured anti-huGIPR antibody surfaces at flow rate 50 ul/min for 3 minutes. After a 10 minutes dissociation, each surface was regenerated by injecting 10 mM Glycine, pH 1.5 for 30 seconds twice.

human GIPR [2] = molecular target: T1, human GIPR; experiment: cell-based or functional assay; remark: listed apart in the source
murine GIPR = molecular target: T3, murine GIPR; experiment: cell-based or functional assay

Row | Binder | cAMP IC50 (human GIPR [1]) | koff (huGIPR ECD) | human cAMP IC50 (human GIPR [2]) | murine cAMP (murine GIPR)
1 | 2G10.347 (antibody, human IgG1, kappa, N297G, V domains shown) VH: not shown VL: EIVMTQSPATLSVSPGERATLSCRASQSVSSNLAWYQQKPGQAPRLLIYGAATRATGIPARFSGSGSGTEFTLTISSLQSEDFAVYYCQQYNNWPLTFGGGTKVEIKR | 28.4 nM | 0.0001 s⁻¹ |  | 
2 | iPS:529404 (antibody, human IgG1, kappa, N297G, V domains shown) VH: not shown VL: EIVLTQSPATLSLSPGERATLSCRASQSVNLNLAWYQQKPGQAPRLLIYQAATRATGIPDRFSGSGSGTEFTLTISRLEPEDFAVYYCQQYNQWPLTFGGGTKVEIKR |  |  | 27.8 nM | 3.9 nM
3 | iPS:529405 (antibody, human IgG1, kappa, N297G, V domains shown) VH: not shown VL: EIVLTQSPATLSLSPGERATLSCRASQSVFSHLAWYQQKPGQAPRLLIYEAATRATGIPDRFSGSGSGTEFTLTISRLEPEDFAVYYCQQYQNWPLTFGGGTKVEIKR |  |  | 22.7 nM | 6.1 nM
4 | iPS:529397 (antibody, human IgG1, kappa, N297G, V domains shown) VH: not shown VL: EIVLTQSPATLSLSPGERATLSCRASQSVSSNLAWYQQKPGQAPRLLIYGAATRATGIPDRFSGSGSGTEFTLTISRLEPEDFAVYYCQQYNNWPLTFGGGTKVEIKR |  |  | 50 nM | 108 nM
5 | iPS:529400 (antibody, human IgG1, kappa, N297G, V domains shown) VH: not shown VL: EIVLTQSPATLSLSPGERATLSCRASQSVSSNLAWYQQKPGQAPRLLIYGAATRATGIPDRFSGSGSGTEFTLTISRLEPEDFAVYYCQQYNNWPLTFGGGTKVEIKR |  |  | 36.6 nM | 79.5 nM
6 | iPS:529399 (antibody, human IgG1, kappa, N297G, V domains shown) VH: not shown VL: EIVLTQSPATLSLSPGERATLSCRASQSVSEHLAWYQQKPGQAPRLLIYEAATRATGIPDRFSGSGSGTEFTLTISRLEPEDFAVYYCQQYQNWPLTFGGGTKVEIKR |  |  | 39.3 nM | 12.9 nM
7 | 2G10.605 (antibody, human IgG1, kappa, N297G, V domains shown, also called SS-26230) VH: not shown VL: EIVMTQSPATLSVSPGERATLSCRASQSVDVNLAWYQQKPGQAPRLLIYNAATRATGIPARVSGSGSGTEFTLTISSLQSEDFAVYYCQQYQNWPLTFGGGTKVEIKR | 25.6 nM | 7e-05 s⁻¹ |  | 
8 | 2G10.601 (antibody, human IgG1, kappa, N297G, V domains shown, also called SS-26226) VH: not shown VL: EIVMTQSPATLSVSPGERATLSCRASQSVFSHLAWYQQKPGQAPRLLIYEAATRATGIPARVSGSGSGTEFTLTISSLQSEDFAVYYCQQYQNWPLTFGGGTKVEIKR | 21.4 nM | 6e-05 s⁻¹ |  | 
9 | 2G10.609 (antibody, human IgG1, kappa, N297G, V domains shown, also called SS-26234) VH: not shown VL: EIVMTQSPATLSVSPGERATLSCRASQSVERHLAWYQQKPGQAPRLLIYEAATRATGIPARVSGSGSGTEFTLTISSLQSEDFAVYYCQQYQNWPLTFGGGTKVEIKR | 26.9 nM | 6e-05 s⁻¹ |  | 
10 | 2G10.603 (antibody, human IgG1, kappa, N297G, V domains shown, also called SS-26228) VH: not shown VL: EIVMTQSPATLSVSPGERATLSCRASQSVDRHLAWYQQKPGQAPRLLIYEAATRATGIPARVSGSGSGTEFTLTISSLQSEDFAVYYCQQYQNWPLTFGGGTKVEIKR | 30.5 nM | < 5e-05 s⁻¹ |  | 
11 | 2G10.348 (antibody, human IgG1, kappa, N297G, V domains shown) VH: not shown VL: EIVMTQSPATLSVSPGERATLSCRASQSVSSNLAWYQQKPGQAPRLLIYGAATRATGIPARFSGSGSGTEFTLTISSLQSEDFAVYYCQQYNNWPLTFGGGTKVEIKR | 42.8 nM | 0.0006 s⁻¹ | 53 nM | 14600 nM
12 | 2G10.604 (antibody, human IgG1, kappa, N297G, V domains shown, also called SS-26229) VH: not shown VL: EIVMTQSPATLSVSPGERATLSCRASQSVNRHLAWYQQKPGQAPRLLIYEAATRATGIPARVSGSGSGTEFTLTISSLQSEDFAVYYCQQYQNWPLTFGGGTKVEIKR | 27.1 nM | < 5e-05 s⁻¹ |  | 
13 | 2G10.602 (antibody, human IgG1, kappa, N297G, V domains shown, also called SS-26227) VH: not shown VL: EIVMTQSPATLSVSPGERATLSCRASQSVFEHLAWYQQKPGQAPRLLIYEAATRATGIPARVSGSGSGTEFTLTISSLQSEDFAVYYCQQYNNWPLTFGGGTKVEIKR | 16.8 nM | < 5e-05 s⁻¹ |  | 
14 | 2G10.610 (antibody, human IgG1, kappa, N297G, V domains shown, also called SS-26235) VH: not shown VL: EIVMTQSPATLSVSPGERATLSCRASQSVFTHLAWYQQKPGQAPRLLIYEAATRATGIPARVSGSGSGTEFTLTISSLQSEDFAVYYCQQYNNWPLTFGGGTKVEIKR | 12.9 nM | < 5e-05 s⁻¹ |  | 
15 | 2G10.606 (antibody, human IgG1, kappa, N297G, V domains shown, also called SS-26231) VH: not shown VL: EIVMTQSPATLSVSPGERATLSCRASQSVLTHLAWYQQKPGQAPRLLIYEAATRATGIPARVSGSGSGTEFTLTISSLQSEDFAVYYCQQYQNWPLTFGGGTKVEIKR | 20.4 nM | < 5e-05 s⁻¹ |  | 
16 | 2G10.608 (antibody, human IgG1, kappa, N297G, V domains shown, also called SS-26233) VH: not shown VL: EIVMTQSPATLSVSPGERATLSCRASQSVFSHLAWYQQKPGQAPRLLIYEAATRATGIPARVSGSGSGTEFTLTISSLQSEDFAVYYCQQYQQWPLTFGGGTKVEIKR | 21.7 nM | < 5e-05 s⁻¹ |  | 
17 | 2G10.607 (antibody, human IgG1, kappa, N297G, V domains shown, also called SS-26232) VH: not shown VL: EIVMTQSPATLSVSPGERATLSCRASQSVDRHLAWYQQKPGQAPRLLIYEAATRATGIPARVSGSGSGTEFTLTISSLQSEDFAVYYCQQYNQWPLTFGGGTKVEIKR | 19.4 nM | 6e-05 s⁻¹ |  | 
18 | iPS:529403 (antibody, human IgG1, kappa, N297G, V domains shown) VH: not shown VL: EIVLTQSPATLSLSPGERATLSCRASQSVDLHLAWYQQKPGQAPRLLIYEAATRATGIPDRFSGSGSGTEFTLTISRLEPEDFAVYYCQQYQNWPLTFGGGTKVEIKR |  |  | 33.9 nM | 12 nM
